# Test results published in patent publication US20250026849A1 (ARCELLX, published 2025).
# T1: CD123 (Homo sapiens (Human), UniProt P26951 19-305, limits assumed)
# T1 construct: The CD123 construct used in the ELISA is not described; also called CD123-Signal
# T1 sequence: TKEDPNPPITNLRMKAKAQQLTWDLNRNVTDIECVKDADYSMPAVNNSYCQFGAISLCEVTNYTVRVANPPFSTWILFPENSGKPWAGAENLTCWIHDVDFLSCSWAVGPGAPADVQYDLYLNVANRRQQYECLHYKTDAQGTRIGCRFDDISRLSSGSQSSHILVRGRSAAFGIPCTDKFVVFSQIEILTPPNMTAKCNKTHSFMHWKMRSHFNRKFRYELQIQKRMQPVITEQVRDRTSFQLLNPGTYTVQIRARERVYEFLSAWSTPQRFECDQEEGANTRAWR
# Target: T1, CD123
# Assay: ELISA
# Parameters: unit not given here
row,Binder,ELISA_avg
1,D domain of SEQ ID NO: 468 (designed binder) MGSWHFFKDDLAWIKNELEALGGSEAELAMFEDDIAMFETMLQSYKGKGNPEVEALRKEAAAIRDELQAYRHN,3.2
2,D domain of SEQ ID NO: 469 (designed binder) MGSWHWFKTDLADIKEELEALGGSEAELAMFEDDIAEFEEFLQMYKGKGNPEVEALRKEAAAIRDELQAYRHN,3.5
3,D domain of SEQ ID NO: 475 (designed binder) MGSWGHFKQDLAWIKDTLEALGGSEAELAFFEDDIAMFEMELQDYKGKGNPEVEALRKEAAAIRDELQAYRHN,4.9
4,D domain of SEQ ID NO: 410 (designed binder) MGSWVEFWDRLWAIDYRLFALGGSEAELAAFEKEIAAFESELQAYKGKGNPEVEALRDEAAWIREELQAYRHN,3.6
5,D domain of SEQ ID NO: 425 (designed binder) MGSWTEFWERLNAIDERLFALGGSEAELAAFEKEIAAFESELQAYKGKGNPEVEWLRLYAAEIRSELQAYRHN,4
6,D domain of SEQ ID NO: 465 (designed binder) MGSWFEFYERLDAINWRLFALGGSEAELAAFEKEIAAFESELQAYKGKGNPEVEALRGEAAAIREDLQAYRHN,3
7,D domain of SEQ ID NO: 466 (designed binder) MGSWNEFEDRLDAIWWRLFALGGSEAELAAFEKEIAAFESELQAYKGKGNPEVEALRVEAAFIRTMLQAYRHN,5.1
8,D domain of SEQ ID NO: 417 (designed binder) MGSWDEFEERLFAIDERLWALGGSEAELAAFEKEIAAFESELQAYKGKGNPEVEALRYLAADIREELQAYRHN,5
9,D domain of SEQ ID NO: 431 (designed binder) MGSWSEFEHRLEAIESRLFALGGSEAELAAFEKEIAAFESELQAYKGKGNPEVEDLRSEAAWIREQLQAYRHN,7.6
10,D domain of SEQ ID NO: 424 (designed binder) MGSWSEFEDRLWAIDQRLFALGGSEAELAAFEKEIAAFESELQAYKGKGNPEVEWLRAYAADIRWELQAYRHN,4.2
11,D domain of SEQ ID NO: 423 (designed binder) MGSWSEFYDRLWAIEERLFALGGSEAELAAFEKEIAAFESELQAYKGKGNPEVEYLRYYAAEIREELQAYRHN,17
12,D domain of SEQ ID NO: 428 (designed binder) MGSWVEFEERLWAIDERLGALGGSEAELAAFEKEIAAFESELQAYKGKGNPEVEWLRDWAADIRWWLQAYRHN,4.1
13,D domain of SEQ ID NO: 427 (designed binder) MGSWWEFENRLWAIEERLEALGGSEAELAAFEKEIAAFESELQAYKGKGNPEVEMLRNYAAEIRWELQAYRHN,5.6
14,D domain of SEQ ID NO: 429 (designed binder) MGSWVEFEERLEAIEERLFALGGSEAELAAFEKEIAAFESELQAYKGKGNPEVEWLRDDAANIRHWLQAYRHN,3.8
15,D domain of SEQ ID NO: 411 (designed binder) MGSWVEFVDRLWAIDERLDALGGSEAELAAFEKEIAAFESELQAYKGKGNPEVEFLRTWAAWIREDLQAYRHN,3.2
16,D domain of SEQ ID NO: 486 (designed binder) MGSWSFFKEELANIQVYLEALGGSEAELAWFEEDIADFEEDLQHYKGKGNPEVEALRKEAAAIRDELQAYRHN,3.8
17,D domain of SEQ ID NO: 467 (designed binder) MGSWFYFKDDLADINYMLEALGGSEAELAMFEDDIAGFELTLLKYKGKGNPEVEALRKEAAAIRDELQAYRHN,3.7
18,D domain of SEQ ID NO: 478 (designed binder) MGSWMFFKEDLADIKWALEALGGSEAELAFFEEEIALFEQHLQQYKGKGNPEVEALRKEAAAIRDELQAYRHN,3.2
19,D domain of SEQ ID NO: 408 (designed binder) MGSWYEFSNRLDAIGERLWALGGSEAELAAFEKEIAAFESELQAYKGKGNPEVEILRHQAAEIRWFLQAYRHN,3.9
20,D domain of SEQ ID NO: 409 (designed binder) MGSWYEFWGRLDAIEERLWALGGSEAELAAFEKEIAAFESELQAYKGRGNPEVEMLREDAAEIRGQLQAYRHN,5.4
21,D domain of SEQ ID NO: 433 (designed binder) MGSWFEFWGRLEAIESRLKALGGSEAELAAFEKEIAAFESELQAYKGKGNPEVEELREHAAWIRAYLQAYRHN,4.9
22,D domain of SEQ ID NO: 434 (designed binder) MGSWQEFTMRLDAIYNRLETLGGSEAELAAFEKEIAAFESELQAYKGKGNPEVEWLRQSAANIRSELQAYRHN,13.7

row,Binder,ELISA_avg
1,D domain of SEQ ID NO: 472 (designed binder) MGSWQWFKDDLAYIKETLEALGGSEAELALFEDMIADFEFELQWYKGKGNPEVEALRKEAAAIRDELQAYRHN,6.3
2,D domain of SEQ ID NO: 477 (designed binder) MGSWYWFKDDLAEIKGLLEALGGSEAELAEFEDEIAVFEQELQEYKGKGNPEVEALRKEAAAIRDELQAYRHN,10.4
3,D domain of SEQ ID NO: 484 (designed binder) MGSWYWFKQDLAHIKSMLEALGGSEAELAWFEEDIADFESELQEYKGKGNPEVEALRKEAAAIRDELQAYRHN,3.3
4,D domain of SEQ ID NO: 485 (designed binder) MGSWTFFKWDLADIKANLEALGGSEAELAWFEEDLAGFEAELQEYKGKGNPEVEALRKEAAAIRDELQAYRHN,4.8
5,D domain of SEQ ID NO: 476 (designed binder) MGSWGYFKDDLAWIKGELEALGGSEAELAEFEWFIAVFEEDLQVYKGKGNPEVEALRKEAAAIRDELQAYRHN,4.5
6,D domain of SEQ ID NO: 474 (designed binder) MGSWIVFKDDLADIKRWLEALGGSEAELAMFEDEIADFEWQLQDYKGKGNPEVEALRKEAAAIRDELQAYRHN,3.9
7,D domain of SEQ ID NO: 422 (designed binder) MGSWWEFIWRLEAIEQRLWALGGSEAELAAFEKEIAAFESELQAYKGKGNPEVEVLRSRAADIRTDLQAYRHN,4
8,D domain of SEQ ID NO: 426 (designed binder) MGSWWEFEERLWAIDYRLHALGGSEAELAAFEKEIAAFESELQAYKGKGNPEVEMLRSWAAEIRALLQAYRHN,4.1
9,D domain of SEQ ID NO: 418 (designed binder) MGSWEEFWERLDAIDTRLWALGGSEAELAAFEKEIAAFESELQAYKGKGNPEVEVLRNDAADIREPLQAYRHN,6.8
10,D domain of SEQ ID NO: 419 (designed binder) MGSWMEFWERLEAIDMRLWALGGSEAELAAFEKEIAAFESELQAYKGKGNPEVEYLRDDAAVIRDDLQAYRHN,4.2
11,D domain of SEQ ID NO: 421 (designed binder) MGSWTEFYNRLDAIDQRLWALGGSEAELAAFEKEIAAFESELQAYKGKGNPEVEMLREYAADIRTDLQAYRHN,3.3
12,D domain of SEQ ID NO: 432 (designed binder) MGSWFEFWERLDAIEWRLWALGGSEAELAAFEKEIAAFESELQAYKGKGNPEVEELRSTAADIRRYLQAYRHN,3.4
13,D domain of SEQ ID NO: 470 (designed binder) MGSWWLFKDDLAEIKYWLEALGGSEAELAFFEDDIAEFERGLQIYKGKGNPEVEALRKEAAAIRDELQAYRHN,3.3
14,D domain of SEQ ID NO: 482 (designed binder) MGSWTYFKDDLADIKQWLEALGGSEAELAFFEIEIAEFEEELQEYKGKGNPEVEALRKEAAAIRDELQAYRHN,4.6
15,D domain of SEQ ID NO: 471 (designed binder) MGSWYEFKDDLAEIKEWLEALGGSEAELAFFELDIADFEWLLQLYKGKGNPEVEALRKEAAAIRDELQAYRHN,3.8
16,D domain of SEQ ID NO: 473 (designed binder) MGSWILFKDDLAWIKETLEALGGSEAELAFFEDNIADFEEQLQGYKGKGNPEVEALRKEAAAIRDELQAYRHN,6
17,D domain of SEQ ID NO: 481 (designed binder) MGSWTFFKNDLAEIKDWLEALGGSEAELADFEWDIAEFEYSLQEYKGKGNPEVEALRKEAAAIRDELQAYRHN,3.9
18,D domain of SEQ ID NO: 480 (designed binder) MGSWVFFKDDLADIKDELEALGGSEAELAFFEIAIALFEWELQEYKGKGNPEVEALRKEAAAIRDELQAYRHN,8.8
19,D domain of SEQ ID NO: 479 (designed binder) MGSWTFFKEDLAGIKWELEALGGSEAELAWFEDEIALFEEELQEYKGKGNPEVEALRKEAAAIRDELQAYRHN,7
20,D domain of SEQ ID NO: 483 (designed binder) MGSWTVFKYDLADIKWWLEALGGSEAELADFEEEIAEFEEELQEYKGKGNPEVEALRKEAAAIRDELQAYRHN,3.9
21,D domain of SEQ ID NO: 420 (designed binder) MGSWLEFMWRLDAIDERLWALGGSEAELAAFEKEIAAFESELQAYKGKGNPEVELLREMAAAIRDDLQAYRHN,5.1
